The target in assay [1] is T1, vWA (von Willebrand factor type A) domain of Arabidopsis thaliana RPN10 (Arabidopsis thaliana, UniProt P55034 1-193).
T1 construct: In Y2H it was a fusion to a GAL4 domain; also called AtvWA; AtRPN10 vWA domain
T1 sequence: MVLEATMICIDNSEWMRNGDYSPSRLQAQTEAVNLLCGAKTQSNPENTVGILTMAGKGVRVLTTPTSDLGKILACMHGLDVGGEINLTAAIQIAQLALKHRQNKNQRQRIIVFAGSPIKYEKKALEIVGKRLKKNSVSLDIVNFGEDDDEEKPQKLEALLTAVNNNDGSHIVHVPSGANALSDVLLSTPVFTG
In words: His-tag pull-down (iMAC), His-sumo-tagged vWA as bait.

Assay [2] addresses T2, UIM domain (C-terminal half with ubiquitin-interacting motifs) of Arabidopsis thaliana RPN10 (Arabidopsis thaliana, UniProt P55034 194-386).
T2 construct: domain: UIM domain
T2 sequence: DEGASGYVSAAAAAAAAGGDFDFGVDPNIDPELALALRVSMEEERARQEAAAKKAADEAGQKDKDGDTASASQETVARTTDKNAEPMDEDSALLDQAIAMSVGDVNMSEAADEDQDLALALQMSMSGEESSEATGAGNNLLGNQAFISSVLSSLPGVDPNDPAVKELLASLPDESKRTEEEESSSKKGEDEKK
In words: yeast two-hybrid.

B1: ZnF (zinc-finger) domain of Arabidopsis thaliana SPL5 (other)
chain: SRLCQVDRCTVNLTEAKQYYRRHRVCEVHAKASAATVAGVRQRFCQQCSRFHELPEFDEAKRSCRRRLAGHNERRRKI
notes: domain: ZnF domain; Recombinant protein from E. coli; also called ZnF domain of AtSPL5
As for B1, in assay [1], the binding result is reported as “no binding”.

B2: SAP05 (effector protein from AY-WB phytoplasma) (other)
chain: APNEEFVGDMRIVNVNLSNIDILKKHETFKKYFDFTLTGPRYNGNIAEFAMIWKIKNPPLNLLGVFFDDGTRDDEDDKYILEELKQIGNGAKNMYIFWQYEQK
notes: also called SAP05_AYWB; His-tagged SAP05
Consider B2, for which the binding result in assay [2] is recorded as “no binding”.

These data come from patent US20240051999A1 (JOHN INNES CENTRE, published 2024).
